From paper PMC6803476, “Nanodomain Clustering of the Plant Protein Remorin by Solid-State NMR” (Frontiers in Molecular Biosciences, 2019) come the findings set out here.

This data set concerns the molecule itself. Kind of data set: negative staining electron microscopy; purified protein incubated overnight at 30°C with preformed liposomes (protein/lipid 1/20; DMPC-d54/β-sitosterol 85/15 or DMPC-d54/β-sitosterol/PIP mix 75/15/10), 2% uranyl acetate stain; filaments mostly in samples without PIPs, very few with PIPs.

B1: REM_(86-198), truncated StREM1.3 bearing only the coiled-coil domain and RemCA (domain or fragment, Solanum tuberosum (potato), UniProt P93788 86-198, looked up)
chain: TEKRVSLIKAWEESEKSKAENKAQKKVSAIGAWENSKKANLEAELKKMEEQLEKKKAEYTEKMKNKIALLHKEAEEKRAMIEAKRGEDLLKAEELAAKYRATGTAPKKILGIF
notes: Remorin group 1 isoform 3 (StREM1.3) of potato (Solanum tuberosum), residues 86-198: coiled-coil segment and the C-terminal membrane anchor RemCA; source: E. coli BL21-DE3 (pET24 vector), purified as described in Martinez et al. (2018), HiPrep gel filtration buffer exchange
In the case of B1, the binding result is “binds”.
